According to patent publication US20200255501A1 (VIB VZW, published 2020):
Changes are numbered by the printed parent chain.

T1: B. anthracis Surface array protein (Sap), native S-Layer on B. anthracis 34F2 cells (Bacillus anthracis, UniProt P49051 30-814)
T1 sequence: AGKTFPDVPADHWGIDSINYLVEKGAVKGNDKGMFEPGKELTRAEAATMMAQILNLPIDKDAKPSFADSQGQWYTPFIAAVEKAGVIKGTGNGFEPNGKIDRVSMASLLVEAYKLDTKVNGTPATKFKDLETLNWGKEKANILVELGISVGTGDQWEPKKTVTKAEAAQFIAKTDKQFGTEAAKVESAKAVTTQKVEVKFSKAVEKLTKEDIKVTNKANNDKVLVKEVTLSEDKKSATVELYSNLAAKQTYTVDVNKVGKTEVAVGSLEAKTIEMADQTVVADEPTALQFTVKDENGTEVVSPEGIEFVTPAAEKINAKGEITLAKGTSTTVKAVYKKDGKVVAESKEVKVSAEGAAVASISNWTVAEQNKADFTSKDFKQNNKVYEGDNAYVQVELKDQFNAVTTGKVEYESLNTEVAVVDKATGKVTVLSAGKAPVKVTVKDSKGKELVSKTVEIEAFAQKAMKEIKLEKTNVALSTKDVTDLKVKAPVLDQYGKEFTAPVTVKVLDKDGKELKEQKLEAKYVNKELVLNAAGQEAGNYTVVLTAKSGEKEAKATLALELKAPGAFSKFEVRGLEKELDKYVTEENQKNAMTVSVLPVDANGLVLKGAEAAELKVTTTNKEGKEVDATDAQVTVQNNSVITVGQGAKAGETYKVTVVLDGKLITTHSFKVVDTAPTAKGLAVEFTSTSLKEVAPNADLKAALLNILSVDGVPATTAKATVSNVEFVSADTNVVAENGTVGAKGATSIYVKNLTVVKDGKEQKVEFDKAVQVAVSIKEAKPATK

B1: anti-Sap Nanobody707 (VHH)
VHH: QVQLVESGGGLVQAGGSLRLSCAASGSIFRINAMGWYRQASGKQRELVAAITSGGNTNYADSVKGRFTISRDNAKNTVYLQMNSLKPEDTAVYYCNADFGTGGRPYDYWGQGTQVTVSS
B2: anti-Sap Nanobody683 (VHH)
VHH: B1 VHH with A33D, S41P, N56S, N76K, T77M, N96H, G100S, G103W, R104A
B3: anti-Sap Nanobody684 (VHH)
VHH: B1 VHH with S21F, I31V, A40V, S41T, N56R, A74I, F99L, P105S
B4: anti-Sap Nanobody702 (VHH)
VHH: QVQLVESGGGLVQAGGSLRLSCAASGSIFRVNDMGWYRQAPGKQRELVAIIITGGSTNYADSVKGRFTISRDNAKNTVYLQMNSLRPEDTAVYYCNADFGTGPGRYDYWGQGTQVTVSS
B5: anti-Sap Nanobody703 (VHH)
VHH: QVQLVESGGGLVQPGGSLRLSCAASGFTFSSYAMSWVRQAPGKGLEWVSDINSGGGSTYYADSVKGRFTISRDNAKNTLYLQMNSLKPEDTAVYYCATGGKYGSTWYGQIEYDYWGQGTQVTVSS
B6: anti-Sap Nanobody688 (VHH)
VHH: QVQLVESGGGLVRAGGSLRLSCAASGSIFRINDMGWYRQAPGKQRELVAAITSGGSTNYADSVKGRFTISRDNAKNTVYLQMNSLKPEDTAVYYCNADFSTVRERRYDYWGQGTQVTVSS
B7: anti-Sap Nanobody692 (VHH)
VHH: QVQLVESGGGLVQAGGSLRLSCAASGSIFRINDMGWYRQAPGKQRELVAVITSGGSANYADSVKGRFSISRDNAKKAVYLRMNSLKPEDTAVYYCNADFGTLGRYDYWGQGTQVTVSS

Legend:
[1] = biological target: Sap Domain 2 (D2, residues 296-384), isolated recombinant domain (Bacillus anthracis, UniProt P49051 296-384); test: dot blot
[2] = biological target: Sap Domain 1 (D1, residues 216-295), isolated recombinant domain (Bacillus anthracis, UniProt P49051 216-295); test: dot blot
[3] = biological target: T1, B. anthracis Surface array protein …; test: fluorescence microscopy of B. anthracis 34F2 cells with DyLight 650-labelled Nb

Row | Binder | binding result [1] | other results
1 | B1 | no binding | 
2 | B2 | no binding | 
3 | B3 |  | binding result [2]: binds
4 | B4 | no binding | 
5 | B5 |  | binding result [3]: binds
6 | B6 | no binding | 
7 | B7 | no binding | 
